Publication PMC12316387

Target: gHgLgO249 complex of 131stop-gO249 virions (human cytomegalovirus, strain TB40/E)
Assay: co-IP + pull-down; gB co-precipitated with gHgLgO from 131stop and 131stop-gO249 virion lysates using anti-gH antibody 14-4b or PDGFRα-Fc; WB, ImageJ; gO precipitation levels normalized and relative gB levels determined

Q: Which fold change of co-precipitated gB against gHgLgOWT does the source give for “glycoprotein gB of HCMV virions (natural protein)” here?
A: Its fold change of co-precipitated gB against gHgLgOWT is 4 fold.
